Test results reported in patent US20250270304A1 (PHENOMIC AI, published 2025).
Numbering of substitutions follows the chain as printed.

T1: Activin B (Homo sapiens (Human), UniProt P09529 293-407)
T1 construct: also called Mature Activin B; mature Activin B
T1 sequence: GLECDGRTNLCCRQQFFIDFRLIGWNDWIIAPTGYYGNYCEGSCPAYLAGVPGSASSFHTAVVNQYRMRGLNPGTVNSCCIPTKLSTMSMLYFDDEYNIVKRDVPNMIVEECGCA

T2: Latent Activin A (human, UniProt P08476 21-426, limits assumed)
T2 construct: also called INHBA latent
T2 sequence: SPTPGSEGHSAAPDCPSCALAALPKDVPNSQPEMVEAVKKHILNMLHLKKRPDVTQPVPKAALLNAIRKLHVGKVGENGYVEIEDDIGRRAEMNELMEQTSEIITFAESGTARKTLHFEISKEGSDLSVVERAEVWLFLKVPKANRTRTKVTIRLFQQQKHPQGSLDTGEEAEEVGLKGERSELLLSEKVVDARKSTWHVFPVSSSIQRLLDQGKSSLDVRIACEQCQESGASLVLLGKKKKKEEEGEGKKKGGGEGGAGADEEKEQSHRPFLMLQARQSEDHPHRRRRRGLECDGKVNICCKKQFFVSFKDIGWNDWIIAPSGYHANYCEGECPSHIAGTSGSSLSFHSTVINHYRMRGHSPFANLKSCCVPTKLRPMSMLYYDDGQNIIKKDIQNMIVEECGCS

T3: Mature Activin A (human, UniProt P08476 311-426)
T3 construct: also called active Activin A; INHBA mature
T3 sequence: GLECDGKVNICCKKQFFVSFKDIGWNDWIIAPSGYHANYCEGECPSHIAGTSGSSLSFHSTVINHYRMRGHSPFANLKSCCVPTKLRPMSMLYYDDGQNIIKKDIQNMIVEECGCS

T4: Inhibin A (Homo sapiens (Human), UniProt P05111 233-366; P08476 311-426)
T4 sequence 1: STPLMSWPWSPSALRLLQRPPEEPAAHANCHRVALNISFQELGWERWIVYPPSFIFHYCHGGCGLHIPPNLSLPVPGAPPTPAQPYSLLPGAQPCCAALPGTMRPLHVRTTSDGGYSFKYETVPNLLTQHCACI
T4 sequence 2: T3 sequence

B1: AB347 (antibody, IgG1, V domains shown)
VH: QVQLQESGPGLVKPSQTLSLTCTVSGFPLSTSRMGVNWIRQPPGKGLEWIGYINPSGATDYNPSLKSRVTMSVDTSKNQFSLKVNSVTAADTAVYYCARAGYPDVWGKGTTVTVSS
VL: EIVMTQSPATLSLSPGERATLSCRASQNIGHSLAWYQQKPGQAPRLLIYGASIRAPGIPARFSGSGSGTDFTLTISSLEPEDFAVYYCQQYITWPSTFGGGTKVEIK
B2: AB854 (antibody, IgG1, V domains shown)
VH: EVQLVQSGAEVKKPGASVKVSCKASGYTFPSHYISWVRQAPGQGLEWMGGMNPITGHTIYAQKLQGRGTMTTDPSTSTAYMELRSLRSDDTAVYYCARDMRYDILPGRSYYYGMDVWGQGTTVTVSS
VL: ESALTQPASVSGSPGQSITISCTGTTGSIASNYVSWYQQHPGKAPKLMIYDTTNRPPGVSNRFSGSKSGNTASLTISGLQAEDEADYYCQSTERGRSDVIFGGGTKLTVL
notes: also called clone 854
B3: AB731 (antibody, IgG1, V domains shown)
VH: QVQLQQPGTELVKPGASVKLSCKASGYTFTSYWMHWVKQRPGQGLEWIGNINPSNGGTNYNEKFKSKATLTVDKSSSTAYMQLSSLTSEDSAVYYCSITTVVAYWYFDVWGTGTTVTVSS
VL: ENVLTQSPAIMSASPGEKVTISCSASSSVSYMYWYQQKPGSSPKPWIFRTYNLASGVPARFSGSGSGTSYSLTISNMEAEDAATYYCQQRSSYPWTFGGGTKLEIK
notes: also called clone 731
B4: AB340 (antibody, IgG1, V domains shown)
VH: EVQLVESGGGLVQPGGSLRLSCAASGFTASRNYMSWVRQAPGKGLELVASISGSGDYTYYPDSVKGRFTISRDNAKNSLYLQMNSLRAEDTAVYYCARSPRGPRLLGYYYGMDVWGQGTTVTVSS
VL: DIVMTQSPLSLPVTPGEPASISCRSSRSLVHGSGHNYLHWYLQKPGQSPQLLIYGASTRVAGVPDRFSGSGSGTDFTLKISRVEAEDVGVYYCMQGTQAPRTFGGGTKVEIK
B5: AB353 (antibody, IgG1, V domains shown)
VH: B1 VH with F27L, P28S, T31N, S32A, R33K, I53V, N54S, P55T, S56T, A58T
VL: EIVMTQSPATLSLSPGERATLSCRASQNVYTNLAWYQQKPGQAPRLLIYGASARASGIPARFSGSGSGTDFTLTISSLEPEDFAVYYCLQYGSSPPLFGGGTKVEIK
B6: AB326 (antibody, IgG1, V domains shown)
VH: QVQLVQSGAEVKKPGASVKVSCKVSGYTFTSSAISWVRQAPGKGLEWMGGIYPGSGHTIYAQKFQGRVTMTEDTSTDTAYMELSSLKSEDTAVYYCAREGDIFVMDVWGLGTAVTVSS
VL: DIQMTQSPSSVSASVGDRVTITCRASMDIRNDLAWYQQKPGKAPKLLIYDASKLETGVPSRFSGSGSGTDFTLTISSLQPEDFANYYCQQAKSFPPTFGGGTKVEIK

Target: T1, Activin B
Experiment: ELISA dose-response, coated antigen
Experimental: (§1) Antibodies were re-expressed in 40 mL cultures of Expi293 cells and purified using protein G magnetic sepharose beads (Cytiva, Marlborough, MA) to provide larger quantities for secondary screening. Secondary screening included dose responses in both functional assays described above (SMAD nuclear localization and fibroblast activations assays) as well as in binding assays to the same antigens listed in Table 3. Plates were coated with 25 μL of 3 μg/mL antigen in 384-well Maxisorp plates overnight at 4° C. with agitation. The next day, the samples in the plates were blocked with 70 μL blocking buffer (PBS+1% BSA+0.1% Tween-20) for 2 hours at room temperature. Plates were then washed three times with 100 μL of wash buffer (PBS+0.1% Tween-20). Primary antibodies in Expi293 expression medium were diluted 1:3 in blocking buffer, 25 μL added per well, and the plates were incubated for an hour at room temperature with agitation. Plates were then washed three times and 25 μL of secondary antibody (goat anti-Human IgG, HRP conjugated; Jackson Immunoresearch) diluted 1:5000 in blocking buffer was added for 30 minutes at room temperature. The wells in the plates were washed six times with wash buffer and TMB substrate was added followed by 1 M H3PO4.

EC50 [nM] | Binder
0.95 | B1
0.27 | B2
0.49 | B3

Target: T2, Latent Activin A
Experiment: ELISA dose-response, coated antigen
Experimental: as §1

EC50 [nM] | Binder
2.46 | B1
1 | B2
0.87 | B3

Target: T3, Mature Activin A
Experiment: ELISA dose-response, coated antigen
Experimental: as §1

EC50 [nM] | Binder
0.72 | B1
0.03 | B2
0.42 | B3

Target: T4, Inhibin A
Experiment: ELISA, coated antigen, OD450

binding result | Binder
no binding (tested: 1.40-fold over BSA) | B4
no binding (tested: 1.40-fold over BSA) | B5

Target: T1, Activin B
Experiment: ELISA, coated antigen, OD450

binding result | Binder
no binding (tested: 1.40-fold over BSA) | B4
no binding (tested: 1.40-fold over BSA) | B6
no binding (tested: 1.40-fold over BSA) | B5

Target: T4, Inhibin A
Experiment: ELISA, coated antigen, OD450
Remark: another data set of the same source
Experimental: as §1

fold-change of OD 450 over negative control (BSA) [fold] | Binder
1.11 | B4
8.53 | B6
0.74 | B1
0.61 | B5

Target: T1, Activin B
Experiment: ELISA, coated antigen, OD450
Remark: another data set of the same source
Experimental: as §1

fold-change of OD 450 over negative control (BSA) [fold] | Binder
1.04 | B4
0.58 | B6
2.54 | B1
0.72 | B5

Target: T2, Latent Activin A
Experiment: ELISA, coated antigen, OD450
Experimental: as §1

fold-change of OD 450 over negative control (BSA) [fold] | Binder
1.9 | B4
5.91 | B6
10.2 | B1
4.4 | B5

Target: T3, Mature Activin A
Experiment: ELISA, coated antigen, OD450
Experimental: as §1

fold-change of OD 450 over negative control (BSA) [fold] | Binder
2.33 | B4
6.01 | B6
10.2 | B1
8.98 | B5
